In patent US20070031511A1, “Method of treatment” (priority 2003, published 2007):

Biological target: Ggly receptor on IMGE-5 cells
Test: cell-based or functional assay

ED50 (nM), proliferation of IMGE cells, thymidine uptake: 1.4 nM
Substance: pentapeptide E5
